Square brackets hold non-standard residues; d marks the D form. Ends that are not written are not given here. pS = N[C@@H](COP(=O)(O)O)C(=O)O
Assays:
14-3-3ζ/Tau pS2 peptide = target: T1, 14-3-3ζ/Tau pS2 peptide (Homo sapiens, UniProt P63104); experiment: Differential scanning fluorimetry of 14-3-3 with Tau pS2 peptide and compounds; assay type: binding; details: 10-fold excess of Tau pS2 peptide relative to 14-3-3ζ
T1 construct: made in house; host or cells: NiCo21 (DE3) E. coli
T1 sequence (P63104 1-245): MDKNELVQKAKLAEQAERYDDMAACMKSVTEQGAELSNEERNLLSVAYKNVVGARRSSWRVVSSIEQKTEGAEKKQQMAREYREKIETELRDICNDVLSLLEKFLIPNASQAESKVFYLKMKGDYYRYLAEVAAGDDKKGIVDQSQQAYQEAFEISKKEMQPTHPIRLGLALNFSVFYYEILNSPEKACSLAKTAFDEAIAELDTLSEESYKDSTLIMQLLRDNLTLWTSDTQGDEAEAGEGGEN
Procedure: Fig. 3 a Dose–response fluorescence anisotropy data of compound titrations to 10 nM FITC-labeled Tau pS2 peptide and 100 nM 14-3-3ζ. […] Mean of three individually performed experiments (see ESI ^† Fig. S8 for the protein titrations). e Differential scanning fluorimetry assay results. Identified melting temperatures (Tm) of 14-3-3γ alone (2.5 μM) and in the presence of Tau pS2 peptide (25 μM) and additionally with selected compounds (75 μM).
As an orthogonal method to profile the PPI stabilizing activity of selected compounds, differential scanning fluorimetry (DSF) assays were performed (Fig. 3e). […] Upon addition of compounds (1, 11, 13–14, and 20–22) to this PPI complex (30-fold compared to 14-3-3ζ), an additional increase in melting temperature between 0.9 °C and 2.1 °C was observed relative to the binary 14-3-3ζ/Tau pS2 peptide system. These observations are in agreement with the stabilization observed in the FA data and strongly testify to the molecular glue effect of our compound, by enhancing the stability of the PPI complex. […]
chromatography (HisTrap high performance cartridges, Cytiva). Typically two 5 mL columns were used for a 2 L culture in which the lysate was loaded on the column, washed with 10 CV wash buffer (50 mM Hepes, pH 8.0, 300 mM NaCl, 25 mM imidazole, 2 mM βME), and eluted with several fractions (2-4 CV) of elution buffer (50 mM Hepes, pH 8.0, 300 mM NaCl, 250 mM imidazole, 2 mM βME). Fractions containing the 14-3-3 protein were combined and dialyzed into 25 mM HEPES pH 8.0, 200 mM NaCl, 10 mM MgCl2, 2 mM βME, followed by dialysis into 25 mM HEPES, 100 mM NaCl, 10 mM MgCl2, 500 μM TCEP (adjusted to pH 8.0). Dialyzed protein was concentrated to ∼40 mg/mL, analyzed by Q -Tof LC/MS, and aliquots were flash -frozen for storage at −80 °C. For 14 -3-3σ∆c, 1 mg TEV per 100 mg purified protein was added to the dialysis to remove the purification tag. The cleaved sample was then again loaded on a 10 mL Ni-NTA column to separate the cleaved product from the expression tag and residual uncleaved protein. The flowthrough was loade d on a Superdex 75 pg 16/60 size exclusion column (GE Life Sciences) using 25 mM HEPES, 100 mM NaCl, 10 mM MgCl2, 500 μM TCEP (adjusted to pH = 8.0) as running buffer. Fractions containing the 14 -3-3 protein were pooled and concentrated to ∼60 mg/mL, analyzed Q -Tof LC/MS, and aliquots were flash -frozen for storage at −80°C. […]
The peptide screen was performed in a similar way as the 14-3-3ζ titration in the precence of compound.
14-3-3ζ was titrated in a 2-fold dilution series (starting at 400 µM 14-3-3ζ) to 100 nM of fluorescein-labeled peptides and 250 µM compound 18 (1% DMSO) in FA buffer (10 mM HEPES pH 7.4, 150 mM […]
Data shown is the average of a scientific triplicate.
Differential Scanning Fluorimetry (DSF)
DSF was performed using 40 µl samples containing 2.5 µM 14 -3-3ζ, 25 µM Tau peptide (Tau pS2, Tau pS214 or Tau pS324), […] (1% DMSO) and 5x ProteoOrange (Lumiprobe, 5000x stock in DMSO) in 10 mM HEPES, 150 mM NaCl, 50 µM TCEP (pH 7.4). The samples were heated from 35 °C to 79°C at a rate of 0.3 °C per 15 s in a C FX96 Touch Real-Time PCR Detection System (Bio -Rad). Fluorescence intensity was determined using excitation ( λem=525/20 nm) and emission ( λex=570/20 nm) filters.
Based on these melting curves, the negative derivative melting curve is obtained from which the melting temperature Tm was determined. All described melting temperatures are based on two or three independent experiments, from which the average and standard deviations were determined.
X-ray crystallography data collection and refinement
For x-ray crystallography, a C-terminally truncated 14-3-3σ protein (truncated after T231 to reduce flexibility) was used. This 14-3-3σ∆C was preincubated with Tau pS214 in complexation buffer (20 mM HEPES pH 7.5, 2 mM MgCl2 and 100 μM TCEP) in a 1:1.5 molar stoichiometry (protein:peptide) at a final protein concentration of 10.0 mg/mL. […]

14-3-3ζ = target: 14-3-3ζ; design: method as in doi:10.1101/2024.03.15.585148; details: FA assay, binary complex; read-out: KD of bivalent Tau pS2 peptide to 14-3-3ζ; cited from earlier work

ΔTm, increase of 14-3-3 melting temperature compared to apo-14-3-3ζ (14-3-3ζ/Tau pS2 peptide): ~0.6 °C
Substance: Tau pS2 peptide: bivalent Tau peptide phosphorylated at S214 + S324: SRTP{pS}LPTPPTREGGGSGGGSGGGVTSKCG{pS}LGNIHHK (chain 1 SRTP[pS]LPTPPTREGGGSGGGSGGGVTSKCG[pS]; numbers in words are those of the source; also: chains 1 and 2 are one continuous peptide joined through pS324) [reference compound]
Kd (14-3-3ζ): 945 ± 70 nM

From paper PMC11892739, “Site-specific molecular glues for the 14-3-3/Tau pS214 protein–protein interaction via reversible covalent imine tethering” (RSC Medicinal Chemistry, 2025)
